Measured values from PMC2626662.

Key:
Experiment in all cases: SPR
DM1 TCR (human) = target: DM1 TCR (human)
[1] = target: HLA-B*4405^EENL (human | not stated | Epstein-Barr virus)
[2] = target: HLA-B*4403^EENL (human | not stated | Epstein-Barr virus)
[3] = target: HLA-B*4402^EENL (human | not stated | Epstein-Barr virus)

| Kd (DM1 TCR (human)) [µM] | Kd [1] [µM] | Kd calc [1] [µM] | koff [1] [s⁻¹] | Kd [2] [µM] | Kd calc [2] [µM] | koff [2] [s⁻¹] | Kd [3] [µM] | Kd calc [3] [µM] | koff [3] [s⁻¹] | Substance |
| --- | --- | --- | --- | --- | --- | --- | --- | --- | --- | --- |
| 1 |  |  |  |  |  |  |  |  |  | HLA-B*4405^EENL (from UniProt P61769 21-119) (peptide-MHC) |
|  | 0.3 | 0.23 | 0.02 | 9.4 | 16 | 0.25 | 6.3 | 14 | 0.2 | DM1 TCR |
